What is called Km is the concentration of substrate that gives half-maximal velocity. Usually kcat stands for the maximal rate divided by the concentration of active sites.

We go through seven proteins from publication doi:10.1101/457440v1.

Substrate in data set [1]: O=C(/C=C/c1ccc(O)cc1)c1c(O)cc(O)cc1O
Description: purified protein.

Substrate in data set [2]: O=C(/C=C/c1ccc(O)cc1)c1ccc(O)cc1O
The data set is described as follows: purified protein.

Substrate in data set [3]: O=C(/C=C/c1ccc(O)cc1)c1ccc(O)cc1O
Description: Michaelis-Menten kinetics of cyclization. The format is biochemical, Medicago sativa.

B1: MsCHI-2 (Medicago sativa; G95V) (protein)
chain: MAASITAITVENLEYPAVVTSPVTGKSYFLGGAGERGLTIEGNFIKFTAIGVYLEDIAVASLAAKWKGKSSEELLETLDFYRDIISGPFEKLIRVSKIRELSGPEYSRKVMENCVAHLKSVGTYGDAEAEAMQKFAEAFKPVNFPPGASVFYRQSPDGILGLSFSPDTSIPEKEAALIENKAVSSAVLETMIGEHAVSPDLKRCLAARLPALLNEGAFKIGN
Turning to B1, in data set [1], the Km worked out at 5.3 ± 2.6 µM and the turnover number (kcat) was 512 ± 26 min⁻¹. In addition, in data set [2], the Km is 65 ± 10 µM and the turnover number (kcat) amounted to 2.16 ± 0.02 min⁻¹.

B2: MsCHI-2 (Medicago sativa; K97M) (protein)
chain: MAASITAITVENLEYPAVVTSPVTGKSYFLGGAGERGLTIEGNFIKFTAIGVYLEDIAVASLAAKWKGKSSEELLETLDFYRDIISGPFEKLIRGSMIRELSGPEYSRKVMENCVAHLKSVGTYGDAEAEAMQKFAEAFKPVNFPPGASVFYRQSPDGILGLSFSPDTSIPEKEAALIENKAVSSAVLETMIGEHAVSPDLKRCLAARLPALLNEGAFKIGN
B2: in data set [1], the Michaelis-Menten constant (Km) stood at 14.5 ± 4.2 µM and the kcat is recorded as 1,300 ± 154 min-1. Moreover, in data set [2], the Km was found to be 25.7 ± 2.1 µM and the catalytic constant (kcat) worked out at 658 ± 11 min⁻¹.

B3: MsCHI-2 (Medicago sativa) (protein)
chain: MAASITAITVENLEYPAVVTSPVTGKSYFLGGAGERGLTIEGNFIKFTAIGVYLEDIAVASLAAKWKGKSSEELLETLDFYRDIISGPFEKLIRGSKIRELSGPEYSRKVMENCVAHLKSVGTYGDAEAEAMQKFAEAFKPVNFPPGASVFYRQSPDGILGLSFSPDTSIPEKEAALIENKAVSSAVLETMIGEHAVSPDLKRCLAARLPALLNEGAFKIGN
As to B3, the Km in data set [1] is 112 ± 28 µM; in data set [2], 8.4 ± 2.0 µM. Besides, the kcat in data set [1] is on record as 11,180 ± 1,380 min-1; in data set [2] it was 2,250 ± 165 min-1.

B4: MsCHI-2 (Medicago sativa; G95T) (protein)
chain: MAASITAITVENLEYPAVVTSPVTGKSYFLGGAGERGLTIEGNFIKFTAIGVYLEDIAVASLAAKWKGKSSEELLETLDFYRDIISGPFEKLIRTSKIRELSGPEYSRKVMENCVAHLKSVGTYGDAEAEAMQKFAEAFKPVNFPPGASVFYRQSPDGILGLSFSPDTSIPEKEAALIENKAVSSAVLETMIGEHAVSPDLKRCLAARLPALLNEGAFKIGN
For the protein B4, in data set [3], the Km was 117 ± 12 µM and the kcat is 0.388 ± 0.0283 s⁻¹.

B5: MsCHI-2 (Medicago sativa; R36K) (protein)
chain: MAASITAITVENLEYPAVVTSPVTGKSYFLGGAGEKGLTIEGNFIKFTAIGVYLEDIAVASLAAKWKGKSSEELLETLDFYRDIISGPFEKLIRGSKIRELSGPEYSRKVMENCVAHLKSVGTYGDAEAEAMQKFAEAFKPVNFPPGASVFYRQSPDGILGLSFSPDTSIPEKEAALIENKAVSSAVLETMIGEHAVSPDLKRCLAARLPALLNEGAFKIGN
On to B5, for which, in data set [1], the Michaelis-Menten constant (Km) was found to be 98.3 ± 1.5 µM and the turnover number (kcat) worked out at 25.4 ± 1.1 min⁻¹.

B6: AtCHI-1 (Arabidopsis thaliana) (protein)
chain: MSSSNACASPSPFPAVTKLHVDSVTFVPSVKSPASSNPLFLGGAGVRGLDIQGKFVIFTVIGVYLEGNAVPSLSVKWKGKTTEELTESIPFFREIVTGAFEKFIKVTMKLPLTGQQYSEKVTENCVAIWKQLGLYTDCEAKAVEKFLEIFKEETFPPGSSILFALSPTGSLTVAFSKDDSIPETGIAVIENKLLAEAVLESIIGKNGVSPGTRLSVAERLSQLMMKNKDEKEVSDHSVEEKLAKEN
B6: in data set [1], the Km was determined as 62 ± 9 µM and the kcat was determined as 379 ± 35 min⁻¹. Also, in data set [2], the Michaelis constant (Km) was 16.8 ± 3.5 µM and the kcat worked out at 0.064 ± 0.005 min⁻¹.

B7: AtCHI-1 (Arabidopsis thaliana; V106G) (protein)
chain: MSSSNACASPSPFPAVTKLHVDSVTFVPSVKSPASSNPLFLGGAGVRGLDIQGKFVIFTVIGVYLEGNAVPSLSVKWKGKTTEELTESIPFFREIVTGAFEKFIKGTMKLPLTGQQYSEKVTENCVAIWKQLGLYTDCEAKAVEKFLEIFKEETFPPGSSILFALSPTGSLTVAFSKDDSIPETGIAVIENKLLAEAVLESIIGKNGVSPGTRLSVAERLSQLMMKNKDEKEVSDHSVEEKLAKEN
As to B7, in data set [1], the Michaelis-Menten constant (Km) turned out to be 19.0 ± 0.5 µM and the kcat came out at 332 ± 34 min⁻¹.
